# In US20230042465A1 (Janssen / Centocor, published 2023):
# Substitutions are numbered along the chain they refer to. In names and notes the source's numbering stands.
# T1: human lymphotoxin (human, UniProt P01374 35-205, limits assumed)
# T1 sequence (looked up): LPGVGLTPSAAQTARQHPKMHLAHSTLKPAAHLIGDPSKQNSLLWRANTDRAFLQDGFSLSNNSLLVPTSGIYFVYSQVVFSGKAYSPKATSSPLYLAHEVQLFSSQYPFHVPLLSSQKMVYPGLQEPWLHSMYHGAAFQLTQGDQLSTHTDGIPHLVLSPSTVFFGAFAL
# B1: TNV148 (antibody, human IgG1, kappa, V domains shown)
# VH: QVQLVESGGGVVQPGRSLRLSCAASGFIFSSYAMHWVRQAPGNGLEWVAFMSYDGSNKKYADSVKGRFTISRDNPKNTLYLQMNSLRAEDTAVYYCARDRGIAAGGNYYYYGMDVWGQGTTVTVSS
# VL: EIVLTQSPATLSLSPGERATLSCRASQSVYSYLAWYQQKPGQAPRLLIYDASNRATGIPARFSGSGSGTDFTLTISSLEPEDFAVYYCQQRSNWPPFTFGPGTKVDIKR
# notes: also called GenTNV148.26.12; C420A
# B2: TNV86 (antibody, V domains shown)
# VH: B1 VH
# VL: B1 VL
# notes: Hybridoma IgG1 kappa; also called GenTNV86.14.34; C417A
# B3: golimumab (SIMPONI) (antibody, human IgG1, kappa, V domains shown)
# VH: B1 VH with P75S
# VL: B1 VL
# modifications: N-glycosylated on asparagine 306
# notes: also called rTNV148B
# What was measured:
# recombinant human TNFα [1] = molecular target: T2, recombinant human TNFα (human, UniProt P01375 77-233, 125I-labeled in the receptor binding assay); experiment: cell-based or functional assay
# recombinant human TNFα [2] = molecular target: T2, recombinant human TNFα; experiment: inhibition of 125I-TNFα binding to plate-coated p55-sf2, hybridoma supernatant
# Procedure: (§1) 50:l of p55-sf2 at 0.5:g/ml in PBS was added to Optiplates to coat the wells during a one-hour incubation at 37° C. Serial dilutions of the eight TNV cell supernatants were prepared in 96-well round-bottom plates using PBS/0.1% BSA as diluent. […] The mixture was preincubated for one hour at RT. The coated Optiplates were washed to remove unbound p55-sf2 and 50:l of the ¹²⁵I-TNFα/cell supernatant mixture was transferred to the Optiplates. After 2 hrs at RT, Optiplates were washed three times with PBS-Tween. 100:l of Microscint-20 was added and the cpm bound determined using the TopCount gamma counter.
# A simple binding assay was done to determine whether the eight TNV mAbs contained in hybridoma cell supernatant were capable of blocking TNFα binding to receptor. The concentrations of the TNV mAbs in their respective cell supernatants were first determined by standard ELISA analysis for human IgG.
# recombinant human TNFα [3] = molecular target: T2, recombinant human TNFα; experiment: competition radioligand assay: mAb in hybridoma supernatant preincubated with 5 ng/ml 125I-TNFα, then 125I-TNFα bound to plate-coated p55-sf2 counted as cpm
# Procedure: The amount of TNFα that bound to the p55 receptor in the presence of the mAbs was determined after washing away the unbound material and counting using a gamma counter. […] Each sample was tested in duplicate. The results shown are representative of two independent experiments.
# as §1
# A simple binding assay was done to determine whether the eight TNV mAbs contained in hybridoma cell supernatant were capable of blocking TNFα binding to receptor.
# human lymphotoxin = molecular target: T1, human lymphotoxin; experiment: not described
Binder,neutralizing TNFα bioactivity (recombinant human TNFα [1]),fold better at blocking TNF binding than TNV118 and TNV14 (recombinant human TNFα [2]),IC50 (read off the curve) (recombinant human TNFα [3]),binding result (human lymphotoxin)
B1,4 fold,~4 fold,~4 ng/mL,
B2,,~4 fold,,
B3,,,,no binding
